Consider two substances from article PMC7040222.

The test system of the series is N=C(N)NCCC[C@H](NC(=O)[C@H](Cc1ccccc1)NC(=O)OCc1ccccc1)C(=O)Nc1ccc([N+](=O)[O-])cc1. Put plainly: purified protein. The conditions noted are these: proenzyme heat-shocked 10 min at 56°C, then activated, assay at room temperature.

Chain of EP-B2 (Hordeum vulgare) (chain, as listed by the source): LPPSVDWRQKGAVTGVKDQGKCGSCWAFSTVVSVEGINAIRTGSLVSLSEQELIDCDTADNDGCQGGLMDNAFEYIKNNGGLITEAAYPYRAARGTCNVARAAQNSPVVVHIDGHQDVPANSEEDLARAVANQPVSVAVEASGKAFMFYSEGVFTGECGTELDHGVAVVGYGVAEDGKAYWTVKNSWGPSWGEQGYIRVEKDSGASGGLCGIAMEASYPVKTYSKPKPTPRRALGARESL
Chain of EP-B2 (Hordeum vulgare; K311A) (chain, as listed by the source K311A): as the sequence (chain, as listed by the source) above, with K178A counted along it

For the substance EP-B2 (Hordeum vulgare), the Michaelis constant (Km) (commonly the substrate concentration at which the rate is half of its maximum) stood at 530.0 µM and the Vmax (commonly the top rate of the reaction or transport when substrate is in excess) was determined as 0.142 µM/min.
With EP-B2 (Hordeum vulgare; K311A), under “variant M3”, the Michaelis-Menten constant (Km) was found to be 1188 µM and the maximum rate (Vmax) worked out at 0.236 µM/min.
